{"source": "the nanobody polyreactivity screen of Harvey et al. (2022)"}
{"assay": "yeast display, Sf9 membrane polyspecificity reagent, FACS + sequencing; frameworks hold sequencing errors", "how_it_was_run": "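In a synthetic yeast display library (Saccharomyces cerevisiae BJ5465), nanobody expression was induced with galactose for 36–48 hours. FACS gates were set low and high (top ~1%) using anti-HA fluorescence for expression and streptavidin fluorescence for binding of the Sf9 membrane reagent. Each polyreactivity label is drawn from the gate of origin.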"}
{"sequence": "QVQLVESGGGLVQAGGSIRLSCAASGFIFGLYDMGWYRQAPGKERELDAAISWSGGSTYYADSVKGRFTISRDNAKNTVYLQMNSLKPEDTAVYYCNKDLYADGEYNYDYWGQGTQVTVSS", "polyreactivity (PSR sort gate)": "low polyreactivity"}
{"sequence": "QVQLVESGGGLVQAGGSLRLSCAASGRTFGGYAMGWYRQAPGKERELDASITSGGSTYYADSVKGRFTISRDNAKNTVYLEMNSLKPEDTAVYYCAADTYFETSTRAIPSNAYWGQGTQVTVSS", "polyreactivity (PSR sort gate)": "low polyreactivity"}
{"sequence": "QVQLVESGAGLVQAGGSLRLSCAPSGSIFAAYAMGWYRQAPGKESELVAAIDRGGSTDYADSVKGRFTISRDNAKNTVYLQMNTLKPEDTAVYYCAKGYDYYVRRYYYWGQGTQVTVSS", "polyreactivity (PSR sort gate)": "high polyreactivity"}
{"sequence": "QVQLVESGGGLVQAGGSLRLSCAASGRIFYPYAMAWYRQAPGKERELVAAISGSGARKYYADSVKGRFTISRDNAKNTVYLQMNSLKPEDTAVYYCARYQSNSDVYWGQGTQVTVSS", "polyreactivity (PSR sort gate)": "high polyreactivity"}
{"sequence": "QVQLVESGGGLVQAGGSLRLTCAASGFIFQYYAMGWYRQAPGKEREFVAAISSSGTSTYYADSVKGRFTISRDNAKNTVYLQMNSLKPEDTAVYYCAAREAGLYWLYYPGLRYYYWGQGTQVTVSS", "polyreactivity (PSR sort gate)": "high polyreactivity"}
{"sequence": "QVQLIESGGGLVQAGGSLRLSCAASGSIFAANAMGWYRQAPGKEREFVASISYTGASTYADSVKGRFTISRDNAKNTVYLQMKSLKPEDTAVYYCAKDGYWTGLDPYYYWGQGTQVTVSS", "polyreactivity (PSR sort gate)": "low polyreactivity"}
{"sequence": "QVQLVESGGGLVQAGGSLRLSCAASGSTFYRNAMGWYIQAPGKVRELVAAISQSGGRTYYADSVKGRFTISRDNAKNTVYLQMNSLKPEDTAVYYCATAFRKDRGFYPSRDYWGQGTQVTVSS", "polyreactivity (PSR sort gate)": "high polyreactivity"}
{"sequence": "QDQLVESGGGLVQAGGSLRLSCAASGRTFNPYAMGSYRQAPGKERELVAAIRWRGTRTYYADSVKGRFTISRDNAKNTVYLQMNSLKPEDTAVYYCAADDPHSREMDYWGQGTQVTVSS", "polyreactivity (PSR sort gate)": "high polyreactivity"}
{"sequence": "QVQLVESGGGLVQAGGSLRLSCAASGRTFLVYAMGWYRQAPGKERELVAAITSGGDTYADSVKGRFTISRDNAKNTVYLQMNSLKPEDTAVYYCAVQPDYFIVLWEYDYWGQGTQVTVSS", "polyreactivity (PSR sort gate)": "high polyreactivity"}
{"sequence": "QVQLVESGGGLVQAGGSLRLICAASGRTFYVYAMGWYRQAPGKEREFVARITSNGGSTTYADSVKGRFTISRDNAKNTVYLQMNSLKPDDTAVYYCNADYDPEDMDYWGQGTQVTVSS", "polyreactivity (PSR sort gate)": "low polyreactivity"}
{"sequence": "QVQLVESGGGLVQAGGSLRLSCAASGFIFGHNDMGWYRQAPGKERELVASISKSGGDTYYADSVKGRFTISRDNAKNTVYLQMNSLKPEDTAVYYCAADGPDAYYYHRYIYFRRSYYWGHGTQVTVSS", "polyreactivity (PSR sort gate)": "low polyreactivity"}
{"sequence": "QVQLVESGGGLDQAGGSLRLSCAASGITFTRNAMGWYRQAPGKERELVAAITKSGGGTYYADSVKGRFTISRDNAKNTVYLQMNSLKPEDTAVYYCAAYTDKYGDYNYWGQGTLVTVSS", "polyreactivity (PSR sort gate)": "high polyreactivity"}
{"sequence": "QVQLVESGVGLVQAVVSLRISCAASGSNFNYYAMGWYRQAPGKERELVAAISGSGATTYYADSVKGRFTISRDNAKNTVYLQMNSLKPEDTAVYYCATTRRWYIGYDYWGQGTQVTVSS", "polyreactivity (PSR sort gate)": "high polyreactivity"}
{"sequence": "QVQLVESGGGLVQAGGSLRLSCAASGFIFTQNAMGWYRQAPGKERELVARISRRGGSTYYADSVKGRFTISRDNAKNTVYLQMNSLKPEDTAVYYCAATINYPGPTRFVSGNHDYWGQGTQVTVSS", "polyreactivity (PSR sort gate)": "high polyreactivity"}
{"sequence": "QVQLVESGGGIVQAGGSLRLSCAASGRIFGIYAMGWYRQAPGKERELVASITDGTITNYADSVKGRFTISRDNAKYTVYLQMNSLKPEDTAVYYCAAGTQAHAYVVRPIEMDYWGQGTQVTVSS", "polyreactivity (PSR sort gate)": "low polyreactivity"}
{"sequence": "QVQLVESGGGLVQAGGSLRLSCAASGSTFRPYAMGWYRQAPGKERELVARITGSGDSTYYADSVKGRFTISRDNAKNTVYLQMNSLKPEDTAVYYCAREFDYSLSGFDYWGQGTQVTVSS", "polyreactivity (PSR sort gate)": "low polyreactivity"}
{"sequence": "QVQLVESGGGLVQAGGSLRLSCAASGNIFVNYAMGWYRQAPGKERELVASINYNGGNTYYADSVKGRFTISRDNAKNTVYLQMNSLKPEDTAVYYCAKDGGGLLRWYTDEYDYWGQGTQVTVSS", "polyreactivity (PSR sort gate)": "low polyreactivity"}
{"sequence": "QVQLVESGGGLVQAGGSLRLSCAASGSIFDYYGMGWYRQAPGKEGELVATISQGGDSSYYADSVKGRFTISRDNAKNTVYLQMNSLKPEDTAVYYCAALVPIYRWYKLYYWGQGTQVTLSS", "polyreactivity (PSR sort gate)": "low polyreactivity"}
{"sequence": "QVQLVESGEGIVQAGGSLRLSCAASGSIFGIYVMGWYRQAPGKERELVAAITFGGGSTYYADSVKGRFTISRYNAKNSVYLKMNRLKPEDTSVYYCAAKSYDEGLYRRPRDYWGQGTQVTESS", "polyreactivity (PSR sort gate)": "high polyreactivity"}
{"sequence": "QVQLVESGGGLVQAGGSLRLSCAASGITFKYYTMGWYRQAPGKERELVAAITSRAGRTYADSVKGRFTISRDNAKNTVYLQMNSLKPEDTAVYYCARRVDYPYAYDYWGQGTQVTVSS", "polyreactivity (PSR sort gate)": "high polyreactivity"}
{"sequence": "QVQLVESGGGLVQAGGSLRLSCAASGLIFRSNAMGWYRQAPGKERELVAAISGSGGRTYYADSVKGRFTISRDNANNTVYLQMNSLKPEDTAVYYCAGRWSYRQNGYWGQGTQVTVSS", "polyreactivity (PSR sort gate)": "high polyreactivity"}
{"sequence": "QVQLVESGGGLVQAGGSLRLSCAASRSTLLSNAMGWYTQAPGKERELVAAINYSGGRTYYADSVKGRFTISRDNAKNTVYLQINSLKPVDTAVYYCNALSSGHGSSSRYDYWGQGTQVTVSS", "polyreactivity (PSR sort gate)": "low polyreactivity"}
{"sequence": "QVQLVESGGGLVQAGGSLRLSCAASGRIFAQYAMGWYRQAPGKERELVADISSGVRTYADSVKGRFTISRDNAKNTVYLQMNSLKPEDTAVYYCNAYYIIFTRNDYWGQGTQVTVSS", "polyreactivity (PSR sort gate)": "low polyreactivity"}
{"sequence": "QVQLVESGGGLVQAGGSLRLSCAASGITLYRYVMGWYRQAPGKERELVADISGRGTSTYYADSVKGRFTISRDNAKNTVYLQMNSLKPEDTAVYYCNAEYTKTGALVIPYTYYYAEDYWGQGTQVTVSS", "polyreactivity (PSR sort gate)": "low polyreactivity"}
{"sequence": "QVQLVESGGGIVQAGGSLRLSCAASGSIFTRYAMGWYRPAPGKERELVAAITKSGSRTYYADSVKGRFTISRDNAKNTVYLQLNCLIAEDTAVFYCATLQGDSSSQYDYWGQGTQVTVSS", "polyreactivity (PSR sort gate)": "high polyreactivity"}
{"sequence": "QVQLVESGGGLVQAGGSLRLSCAASGLTFGGYAMGWYRQAPGKERELVAAISRSGGSTYYADSVKGRFTISRDNAKNTVYLQMNSLQPEDTAVYYCNGGRGTKYDYWGQGTQVTVSS", "polyreactivity (PSR sort gate)": "low polyreactivity"}
{"sequence": "QVQLVESWGGLVQAGGSLRLSCAASGFTFTWYAMGWSRQAPGKERELLAAITSSGGSTYYADSVKGRFTISRDNAKNTVYLQMNSLKPEDTAVYYCAAKSYWSGYFVGYEYWGQGTQVTVSS", "polyreactivity (PSR sort gate)": "high polyreactivity"}
{"sequence": "QVQLVESGGGLVQAGGSLRLSCAPSGSTFYPYAMGWYRQAPGKERELVAAISSGGSTYYADSVKGRFTISRDNAKNTVYLQMNSLKPEDTAVYYCAADFYYAYYWGQGTQVTVSS", "polyreactivity (PSR sort gate)": "low polyreactivity"}
{"sequence": "QVQLVESGGGLVQAGGSLRLSCAASGIILQKYTMGWYRQAPGKERELVAASTRSGGSTYYADSVKGRFTISRDNAKNTVYLQMNSLKPEDTAVYYCYGYEYWGQGTQVTVSS", "polyreactivity (PSR sort gate)": "high polyreactivity"}
{"sequence": "QVQLVESGGGLVQAGGSLRLSCAASGFIFSNNAMGWYRQAPGKERELVAAISKSGGGTSYADSVKGRFTISRDNAKNTVYLQMKSLNPEDSGVYYCAARFSQFRVDFWGQGTQVTVSS", "polyreactivity (PSR sort gate)": "high polyreactivity"}
{"sequence": "QVQLVESGGGLVQAGGSLRLSCAASGRTSWVYAMGWYRQAPGKERELVASIRKRTVVYADSVKGRFTISRDNAKNTVYLQMNSLKPEDTAVYYCNADTTFYGYRTYRPENYWGQGTQVTVSS", "polyreactivity (PSR sort gate)": "high polyreactivity"}
{"sequence": "QDQLVESGGGLVQAGGSLRLSCAASGYTFRYYAMGWYRQAPGKERELVARITGRAGSTYYADSVKGRFTISRDNAKNTVYLQMNSLKPEDTAVYYCAASIREGFYWGQGTQVTVSS", "polyreactivity (PSR sort gate)": "high polyreactivity"}
{"sequence": "QVQLVESGGGLVQAGGSLRLSCAASGNIFSDNAMGWYIQAPGKERELVAAITSGGSTNYADSVKGRFTISLDNAKNTVYLQMISLKPEDNAVYYCAADISYRHFLFDYWGQGTQVTVSS", "polyreactivity (PSR sort gate)": "low polyreactivity"}
{"sequence": "QVQLVESGGGLVQAGGSLRLSCAASGRTFSYYGMGWYRKAPGKERELVAGISIRGSHTYYADSVKGRFTISRDNAKNTVFLQMNSLKPEDTGVYYCAARWIGLYSYEYWGQGSQVTVSS", "polyreactivity (PSR sort gate)": "high polyreactivity"}
{"sequence": "QVQLVESGGGLVQAGGSLRLSCAASGRTLGGYAMVWYRQAPGTERELVAAITRRGGSTYYADSVKGRFTISRDNAKNTVYLQMYSLKQEDTAVYYCAARYLYSDEYWDKFYYWGQGTQVTVSS", "polyreactivity (PSR sort gate)": "high polyreactivity"}
{"sequence": "QVQLVESGGGLVQAGGSLRLSCADSGRTFFYYAMGWYRQAPGKERELVAAITTGGSTNYADSVKGRFTISRDNAKNTDYLQMKSLNPEDTEVYFCNADYDKGVRFNFTASFGEFDYWGQGTQVTVSS", "polyreactivity (PSR sort gate)": "low polyreactivity"}
{"sequence": "QVQLVESGGGLVQAGGSLRLSCAASGSTFPGNAMGWYRQAPGKERELVARINDGADTNYADSVKGRFTISRDNAKTTVSLQMNSLKPEDTAVYYCANPYFDGRTHFDSWGQGTQVTVSS", "polyreactivity (PSR sort gate)": "low polyreactivity"}
{"sequence": "QVQLVESGGGLVQAGGILSLSCAASGRTFCYYTMGWYRQAPGKERELVAAISSGGRTNYADSVKGRFTNSRDNAKITVYLQMISLKPEDTAVYYGATSLYYKYVERDYWGHGTQVTVSS", "polyreactivity (PSR sort gate)": "high polyreactivity"}
{"sequence": "QVQLVESGGGLVQAGGSLRLSCAASGFILRWYAMGWYRQAPGKERELVAAISWSGGSTYYADSVKGRFTISRDNAKNTVYLQMNSLKPEDTAVYYCNAVNYRNKYDYWGQGTQVTVSS", "polyreactivity (PSR sort gate)": "high polyreactivity"}
{"sequence": "QVQLVESGGGLVQAGGSLRLSCAASGLTFARNAMGWYRQAPGKERELVAAISSRGGSTYYADSVKGRFTISRDNAKNTVYLQMNSLKPEDTAVYYCATSQVLRRDRYDYWGQGTQVTVSS", "polyreactivity (PSR sort gate)": "high polyreactivity"}
{"sequence": "QVQLVESGGGLVQAGGSLRLSCAASGITLYGYAMGWYRQAPGKEREFVAAISRSGDRTYYADSVKGRFTISRDNAKNTVYLQMNSLKPEDTAVYYCNAWRYDYWGQGTQVTVSS", "polyreactivity (PSR sort gate)": "high polyreactivity"}
{"sequence": "QVQLVESRGGLVQAGGSLRLSCAASGGIFINYAMGWYRQAPGKERELVAAISRRGGSTYYADSVKGRFTISRDNAKNTVYLQMNSLKPEDTAVYYCNAVYLRGGMDYWGQGTQVTVSS", "polyreactivity (PSR sort gate)": "high polyreactivity"}
{"sequence": "QVQLVESGGGLVQAGGSLRLSCAASGRTFRTYNMGWYRQAPGKERELVAAISYSGGSTYYADSVKGRFTISRDNAKNTVYLQMNSLKPEDNAVYYCNARRYFWGFDYWGQGTQVNVSS", "polyreactivity (PSR sort gate)": "high polyreactivity"}
